# Measured values taken from patent US20190106460A1 (published 2019).
# Starred links: 1 amine or outer side, 2 acyl side, 3 side chain; linkers in the order of their positions; H or OH if unused. Non-standard residues stand in square brackets, D forms with d. No end group written: not given here. *: point of attachment. E(Me) = COC(=O)CC[C@H](N[*:1])C(=O)[*:2]; Phe(3-F) = N[C@@H](Cc1cccc(F)c1)C(=O)O; Tos = Cc1ccc(S(=O)(=O)*)cc1
# What was measured:
# [1] = target: T1, HisβTrCP/Skp1 and HisβTrCP/GSTSkp1 (immobilised on NTA Biacore chip) (UniProt Q9Y297 175-605; P63208 1-163); test: SPR (Biacore T200), single cycle run up to 1e-6 M, steady-state fit of the run shown; Rmax 1.318 RU, Chi² 0.00773 RU² [D]
# T1 construct: SPR: KD values from both surfaces (with or without the GST moiety) were averaged to give the apparent KD; also called βTrCP surfaces
# Text: (§1) As βTrCP was His tagged, an NTA sensor chip was used. This sensor chip has a dextran surface matrix with immobilized nitrilotriacetic acid (NTA) which provides a means of capturing polyHis-tagged proteins through Nickel chelation. It was hoped that addition of Ni⁺ would orient the protein in a specific (and hopefully active) manner as it is covalently immobilised via amine coupling. Addition of EDC:NHS (N-ethyl-N′-(3-[…])-carbodiimide:N-hydroxysuccinimide) converts carboxyl groups on the dextran sensor chip surface to succinamide esters which readily form covalent bonds with primary amines. Each chip contains four flow cells (each a separate surface) which means that compounds/peptides can be passed over different forms of βTrCP and a reference surface simultaneously. If binding to βTrCP is occurring, responses should be the same (accounting for differences in density of surface etc) on each surface.
# (§2) Small molecule/peptide samples to be assayed for binding to βTrCP surfaces, were provided as 10 mM stocks in 100% DMSO. All samples were tested in running buffer composed of 10 mM HEPES pH 7.4, 150 mM NaCl, 50 μM EDTA, 0.005% p20, and 1% DMSO. Serial dilutions were made using running buffer. […] KD values calculated from binding curves from both surfaces (with or without the GST moiety) were averaged to produce apparent KD's for each sample tested.
# [2] = target: T2, βTrCP (tag cleaved and complexed with Skp1) (UniProt Q9Y297 175-605; P63208 1-163); test: FP competition vs fluorescein-IκB peptide
# T2 construct: Protein of the FP assay (0.035 µM); also called Beta Transducin repeat-containing protein; βTrCP/Skp1
# Skp2 = Skp2 (UniProt Q13309 1-424, limits assumed); test: cell-based or functional assay
# Fbw7 = Fbw7 (UniProt Q969H0 263-707, limits assumed); test: cell-based or functional assay
# [3] = target: T2, βTrCP (tag cleaved and complexed with …); test: FP competition vs fluorescein-IκB peptide; remark: listed apart in the source
# [4] = target: T1, HisβTrCP/Skp1 and HisβTrCP/GSTSkp1 …; test: SPR, Biacore T200, βTrCP/Skp1 immobilised
# Text: as §1
# Small molecule/peptide samples to be assayed for binding to βTrCP surfaces, were provided as 10 mM stocks in 100% DMSO. All samples were tested in running buffer composed of 10 mM HEPES pH 7.4, 150 mM NaCl, 50 μM EDTA, 0.005% p20, and 1% DMSO. Serial dilutions were made using running buffer. Samples were tested over varying concentrations up to a maximum of 100 μM. Two methods of measuring the SPR response were employed: single cycle kinetics which measures the response across different concentrations of sample within a single cycle (no regeneration of surface) and a method that measures the response at a given concentration in each cycle and includes a regeneration wash after each sample injection. The regeneration solution used was the same as running buffer, but included 500 mM NaCl. Data was fitted using Biacore T200 evaluation software. KD values calculated from binding curves from both surfaces (with or without the GST moiety) were averaged to produce apparent KD's for each sample tested.
# [5] = target: T3, βTrCP (tag cleaved and complexed with Skp1) (UniProt Q9Y297 175-605; P63208 1-163); test: FP competition, 10 nM fluorescein-IκB peptide on βTrCP/Skp1
# T3 construct: Protein of the fluorescence polarisation assay, 0.035 µM; also called Beta Transducin repeat-containing protein; βTrCP/Skp1
# Description: Binding of the compounds to βTrCP was assessed using a fluorescence polarisation (FP) binding assay. The FP assay is an in vitro binding assay using a fluorescein-tagged IkB peptide at 10 nM to mimic substrate binding to βTrCP, and was performed as described above.
# [6] = target: T1, HisβTrCP/Skp1 and HisβTrCP/GSTSkp1 …; test: SPR (Biacore T200), single cycle run up to 1e-6 M, steady-state fit of the run shown; Rmax 2.156 RU, Chi² 0.00730 RU² [E]
# Text: as §1, §2
# Sequence of Fbw7 (Q969H0 263-707 limits assumed): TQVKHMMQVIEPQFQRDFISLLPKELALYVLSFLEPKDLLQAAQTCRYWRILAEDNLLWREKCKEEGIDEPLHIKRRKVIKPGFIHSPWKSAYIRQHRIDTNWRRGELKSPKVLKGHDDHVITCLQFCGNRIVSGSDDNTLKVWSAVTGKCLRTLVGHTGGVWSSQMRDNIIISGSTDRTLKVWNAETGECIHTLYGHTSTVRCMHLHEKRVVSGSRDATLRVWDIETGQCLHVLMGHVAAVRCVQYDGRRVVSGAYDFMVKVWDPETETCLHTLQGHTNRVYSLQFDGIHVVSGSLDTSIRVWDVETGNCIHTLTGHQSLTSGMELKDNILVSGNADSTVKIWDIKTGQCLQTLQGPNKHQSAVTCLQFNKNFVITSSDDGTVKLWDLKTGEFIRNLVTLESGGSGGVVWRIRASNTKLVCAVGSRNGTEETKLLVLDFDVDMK
# Sequence of Skp2 (Q13309 whole entry): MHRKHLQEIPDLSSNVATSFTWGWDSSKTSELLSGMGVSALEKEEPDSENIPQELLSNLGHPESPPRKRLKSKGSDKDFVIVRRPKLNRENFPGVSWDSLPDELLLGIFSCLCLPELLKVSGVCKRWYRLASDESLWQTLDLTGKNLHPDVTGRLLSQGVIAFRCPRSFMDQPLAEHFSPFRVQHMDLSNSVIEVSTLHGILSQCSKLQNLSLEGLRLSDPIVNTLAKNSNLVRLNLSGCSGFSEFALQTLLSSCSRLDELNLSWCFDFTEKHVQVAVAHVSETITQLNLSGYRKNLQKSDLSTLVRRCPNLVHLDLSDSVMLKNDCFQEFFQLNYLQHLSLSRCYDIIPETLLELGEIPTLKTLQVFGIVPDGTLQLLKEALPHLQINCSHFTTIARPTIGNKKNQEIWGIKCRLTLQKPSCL
# T1 sequence (Q9Y297 175-605, chain 1 of 2): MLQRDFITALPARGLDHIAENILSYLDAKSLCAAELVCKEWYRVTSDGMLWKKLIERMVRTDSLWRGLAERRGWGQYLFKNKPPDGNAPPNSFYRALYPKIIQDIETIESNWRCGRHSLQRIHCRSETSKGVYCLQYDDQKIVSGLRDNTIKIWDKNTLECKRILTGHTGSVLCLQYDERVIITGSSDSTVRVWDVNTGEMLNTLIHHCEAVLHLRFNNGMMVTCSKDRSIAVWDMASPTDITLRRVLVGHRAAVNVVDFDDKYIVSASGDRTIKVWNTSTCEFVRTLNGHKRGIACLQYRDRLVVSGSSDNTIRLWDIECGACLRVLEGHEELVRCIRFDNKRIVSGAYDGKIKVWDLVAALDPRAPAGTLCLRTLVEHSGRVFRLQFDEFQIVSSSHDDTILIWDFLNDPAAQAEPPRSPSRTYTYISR
# T1 sequence (P63208 whole entry, chain 2 of 2): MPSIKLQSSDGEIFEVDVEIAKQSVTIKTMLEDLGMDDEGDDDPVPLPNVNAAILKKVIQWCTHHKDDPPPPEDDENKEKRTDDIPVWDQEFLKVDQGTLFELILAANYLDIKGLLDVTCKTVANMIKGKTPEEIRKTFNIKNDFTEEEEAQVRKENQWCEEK
Binder,Kd [1],IC50 [2],% Inhibition Skp2 @ 10 µM (Skp2),% Inhibition Skp2 @ (100 µM) (Skp2),% Inhibition Fbw7 @ 10 µM (Fbw7),% Inhibition Fbw7 @ (100 µM) (Fbw7),IC50 [3],Kd [4],IC50 [5],Kd [6]
"Tos-DEG[Phe(3-F)]WE-NH2 (SMILES Cc1ccc(S(=O)(=O)N[C@@H](CC(=O)O)C(=O)N[C@@H](CCC(=O)O)C(=O)NCC(=O)N[C@@H](Cc2cccc(F)c2)C(=O)N[C@@H](Cc2c[nH]c3ccccc23)C(=O)N[C@@H](CCC(=O)O)C(N)=O)cc1, also called UBP024) [Ts-DEGF(3F)WE-NH2]",40 nM,18 nM,0%,7%,0%,8%,18 nM,19 nM,–,–
DEGFFE-NH2 [DEGFFE-NH2],–,–,–,–,–,–,–,–,43600 nM,–
Tos-[dD]EG[Phe(3-F)]W[E(Me)]-NH2 (also called UBP032) [Ts-dEGF(3F)WE(Me)-NH2],–,22 nM,0%,0%,4%,10%,22 nM,170 nM,–,108 nM
